According to patent publication US20210230304A1 (SYSMEX, published 2021):

What was measured:
[1] = target: T1, HER2 protein (R&D Systems, Inc., Catalog No. 1129-ER) (UniProt P04626 23-652); assay: SPR, Biacore T200; reference is the wild-type anti-HER2 antibody
T1 construct: Bought reagent
Experimental: (§1) The affinity of the prepared variants was measured using Biacore (registered trademark) T200 (GE Healthcare). […] Antigen was immobilized (immobilization: 50 RU) to a sensor chip for Biacore (registered trademark) Series S Sensor Chip CMS (GE Healthcare). The antibody solution was diluted to prepare antibody solutions of 30 nM, 15 nM, 7.5 nM, 3.75 nM and […]. The antibody solutions at each concentration were delivered to Biacore (registered trademark) T200 (GE Healthcare) (association time of 120 seconds and dissociation time of 1800 seconds). Measurement data was analyzed using Biacore (registered trademark) Evaluation software, and the data on the affinity of each antibody was obtained.
(§2) In the measurement, TSH protein (R&D Systems, Inc.) was used as an antigen of the anti-TSH antibody, and HER2 protein (R&D Systems, Inc., Catalog No. 1129-ER) was used as an antigen of the anti-HER2 antibody.

[2] = target: T1, HER2 protein (R&D Systems, Inc., …); assay: SPR, Biacore T200; antigen immobilised, antibody as analyte
Experimental: as §1, §2

- Ratio (Kd against wild-type = 1) [1]: 2.71
- Kd [2]: 0.0219 nM
B1: 76, 77, 81 variant (Arg) of the humanized anti-HER2 antibody (antibody, V domains shown)
VH: not shown
VL: DIQMTQSPSSLSASVGDRVTITCRASQDVNTAVAWYQQKPGKAPKLLIYSASFLYSGVPSRFSGSRSGTDFTLTIRRLQPRDFATYYCQQHYTTPPTFGQGTKVEIKR
